Measurements as given in IntAct's records for PubMed 30388101.

B1: Paired immunoglobulin-like type 2 receptor alpha (Homo sapiens), Q9UKJ1 (parent)
chain: MGRPLLLPLLPLLLPPAFLQPSGSTGSGPSYLYGVTQPKHLSASMGGSVEIPFSFYYPWELATAPDVRISWRRGHFHRQSFYSTRPPSIHKDYVNRLFLNWTEGQKSGFLRISNLQKQDQSVYFCRVELDTRSSGRQQWQSIEGTKLSITQAVTTTTQRPSSMTTTWRLSSTTTTTGLRVTQGKRRSDSWHISLETAVGVAVAVTVLGIMILGLICLLRWRRRKGQQRTKATTPAREPFQNTEEPYENIRNEGQNTDPKLNPKDDGIVYASLALSSSTSPRAPPSHRPLKSPQNETLYSVLKA
B2: Paired immunoglobulin-like type 2 receptor alpha (Homo sapiens), Q9UKJ1 (parent)
chain: B1 chain
partner: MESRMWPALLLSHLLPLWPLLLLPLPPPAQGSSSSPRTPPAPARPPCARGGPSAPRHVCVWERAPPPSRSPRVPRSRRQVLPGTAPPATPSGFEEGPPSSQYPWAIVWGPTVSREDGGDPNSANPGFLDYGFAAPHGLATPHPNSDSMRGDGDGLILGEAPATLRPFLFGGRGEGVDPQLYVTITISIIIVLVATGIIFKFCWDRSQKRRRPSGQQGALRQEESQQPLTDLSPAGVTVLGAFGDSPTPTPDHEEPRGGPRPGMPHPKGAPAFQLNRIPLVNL
B3: Paired immunoglobulin-like type 2 receptor alpha (Homo sapiens), Q9UKJ1 (parent)
chain: B1 chain
partner: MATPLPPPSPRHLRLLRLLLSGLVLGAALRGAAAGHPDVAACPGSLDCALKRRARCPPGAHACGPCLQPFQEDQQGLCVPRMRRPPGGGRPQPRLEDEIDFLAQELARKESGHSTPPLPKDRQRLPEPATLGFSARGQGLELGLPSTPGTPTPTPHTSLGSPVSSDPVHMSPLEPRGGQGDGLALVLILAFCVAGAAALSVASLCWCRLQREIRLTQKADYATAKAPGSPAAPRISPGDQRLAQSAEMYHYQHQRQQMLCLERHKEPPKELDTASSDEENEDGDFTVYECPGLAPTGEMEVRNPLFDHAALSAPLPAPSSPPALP

Variants of: B1
Conditions: with co4a_human C4A

Row | Variant | effect of a mutation on the interaction
1 | S80G | increasing interaction strength
2 | F76A | disrupting interaction strength
3 | R78G | increasing interaction strength

Variants of: B2
Conditions: with pianp_human PIANP

Row | Variant | effect of a mutation on the interaction
4 | R78G | increasing interaction strength
5 | R72A | disrupting interaction strength
6 | S80G | increasing interaction strength
7 | F76A | disrupting interaction strength

Variants of: B3
Conditions: with npdc1_human NPDC1, Q9NQX5

Row | Variant | effect of a mutation on the interaction
8 | R72A | disrupting interaction strength
9 | S141A | increasing interaction strength
10 | R78G | increasing interaction strength
11 | F76A | disrupting interaction strength
12 | S80G | increasing interaction strength
13 | Q140A | disrupting interaction strength

Variants of: B3
Conditions: with npdc1_human NPDC1, Q9NQX5
Remark: another data set of the same source

Row | Variant | effect of a mutation on the interaction
14 | Q140A | decreasing interaction strength
